Test results reported in patent US20150056199A1 (ACCELERON PHARMA, published 2015).

T1: ALK6 receptor-Fc fusion protein (human, UniProt O00238 14-126)
T1 construct: Bought from R&D Systems or made in-house; not shown: IgG1 Fc domain
T1 sequence (looked up): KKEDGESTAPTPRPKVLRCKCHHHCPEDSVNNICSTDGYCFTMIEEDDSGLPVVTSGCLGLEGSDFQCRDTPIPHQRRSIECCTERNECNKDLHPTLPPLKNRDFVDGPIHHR

B1: ALK5 receptor-Fc fusion protein (Fc fusion, human, UniProt P36897 34-126, looked up)
chain: LQCFCHLCTKDNFTCVTDGLCFVSVTETTDKVIHNSMCIAEIDLIPRDRPFVCAPSSKTGSVTTTYCCNQDHCNKIELPTTVKSSPGLGPVEL
notes: Bought from R&D Systems or made in-house; also called TGFβ receptor type I; not shown: IgG1 Fc domain
B2: murine GDF15 (mGDF15), mature, generated in-house in CHO cells (ligand)
chain: AHPRDSCPLGPGRCCHLETVQATLEDLGWSDWVLSPRQLQLSMCVGECPHLYRSANTHAQIKARLHGLQPDKVPAPCCVPSSYTPVVLMHRTDSGVSLQTYDDLVARGCHCA
B3: fusion protein incorporating the wild-type TβRIIlong isoform (R&D Systems) (Fc fusion)
chain: TIPPHVQKSDVEMEAQKDEIICPSCNRTAHPLRHINNDMIVTDNNGAVKFPQLCKFCDVRFSTCDNQKSCMSNCSITSICEKPQEVCVAVWRKNDENITLETVCHDPKLPYHDFILEDAASPKCIMKEKKKPGETFFMCSCSSDECNDNIIFSEEYNTSNPD
notes: Bought from R&D Systems; also called TβRIIlong-Fc; not shown: Fc fusion partner of the purchased construct is not described for this follow-up analysis
B4: hTβRII-hG1Fc fusion protein (R&D Systems) incorporating the wild-type TβRIIshort isoform (Fc fusion)
chain: IPPHVQKSVNNDMIVTDNNGAVKFPQLCKFCDVRFSTCDNQKSCMSNCSITSICEKPQEVCVAVWRKNDENITLETVCHDPKLPYHDFILEDAASPKCIMKEKKKPGETFFMCSCSSDECNDNIIFSEEYNTSNPD
notes: Bought from R&D Systems; also called hTβRII-Fc; TGFβ receptor type II (TβRII)-Fc; not shown: human IgG1 Fc domain
B5: ALK7 receptor-Fc fusion protein (Fc fusion, human, UniProt Q8NER5 21-113, looked up)
chain: ELSPGLKCVCLLCDSSNFTCQTEGACWASVMLTNGKEQVIKSCVSLPELNAQVFCHSSNNVTKTECCFTDFCNNITLHLPTASPNAPKLGPME
notes: Bought from R&D Systems or made in-house; not shown: IgG1 Fc domain
B6: ALK2 receptor-Fc fusion protein (Fc fusion, human, UniProt Q04771 21-123, looked up)
chain: MEDEKPKVNPKLYMCVCEGLSCGNEDHCEGQQCFSSLSINDGFHVYQKGCFQVYEQGKMTCKTPPSPGQAVECCQGDWCNRNITAQLPTKGKSFPGTQNFHLE
notes: as for B5
B7: human GDF15 (hGDF15), mature, generated in-house in CHO cells (ligand)
chain: ARNGDHCPLGPGRCCRLHTVRASLEDLGWADWVLSPREVQVTMCIGACPSQFRAANMHAQIKTSLHRLKPDTVPAPCCVPASYNPMVLIQKTDTGVSLQTYDDLLAKDCHCI
notes: also called MIC-1
B8: ALK4 receptor-Fc fusion protein (Fc fusion, human, UniProt P36896 24-126, looked up)
chain: SGPRGVQALLCACTSCLQANYTCETDGACMVSIFNLDGMEHHVRTCIPKVELVPAGKPFYCLSSEDLRNTHCCYTDYCNRIDLRVPSGHLKEPEHPSMWGPVE
notes: as for B5

Assays:
[1] = target: B2; assay: surface plasmon resonance with captured receptor-Fc fusion proteins
From the text: (§1) These fusion proteins incorporated an IgG1 Fc domain and were either purchased from R&D Systems or generated in-house.

[2] = target: T1, ALK6 receptor-Fc fusion protein; assay: as above
From the text: as §1

[3] = target: T2, ALK3 receptor-Fc fusion protein (human, UniProt P36894 24-152); assay: as above
T2 construct: Bought from R&D Systems or made in-house; not shown: IgG1 Fc domain
From the text: as §1

[4] = target: B4; assay: surface plasmon resonance at 37° C., mGDF15
[5] = target: B2; assay: surface plasmon resonance at 37° C., mGDF15
[6] = target: T3, GDF15 (human or murine, not specified where printed); assay: surface plasmon resonance, receptor-Fc captured, GDF15 as analyte
T3 construct: Used here only where the species cannot be told
From the text: as §1

[7] = target: B4; assay: surface plasmon resonance at 37° C., hTβRII-Fc captured, hGDF15 as analyte; 37° C.; hTβRII-Fc captured, hGDF15 as analyte
From the text: as §1

T2 sequence (P36894 24-152 limits assumed): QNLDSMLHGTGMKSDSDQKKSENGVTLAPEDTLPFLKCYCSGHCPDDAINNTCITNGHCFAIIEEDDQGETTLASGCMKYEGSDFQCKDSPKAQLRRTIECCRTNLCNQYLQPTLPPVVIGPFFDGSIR

Binder: B1
binding result [1]: no binding (tested: 20 nM or 200 nM)

Binder: B2
binding result [2]: no binding (tested: 20 nM or 200 nM) | binding result [3]: no binding (tested: 20 nM or 200 nM) | Kd [4]: 4.8 nM

Binder: B3
Kd [5]: 2.7 nM

Binder: B4
koff [6]: 0.001 s⁻¹ | kon [6]: 292000 M⁻¹ s⁻¹

Binder: B5
binding result [1]: no binding (tested: 20 nM or 200 nM)

Binder: B6
binding result [1]: no binding (tested: 20 nM or 200 nM)

Binder: B7
Kd [7]: 9.56 nM

Binder: B8
binding result [1]: no binding (tested: 20 nM or 200 nM)
